Experimental findings from publication PMC4048344 (Channels, 2014) are described below.

The target in test [1] is MBP-tagged SK2-ARK C-terminus (aa 368-553) (chicken). Put plainly: pull-down.
Test [2] concerns the target chicken SK2-ARK splice variant, full length, expressed in Xenopus oocytes (chicken). Put plainly: co-IP.
The target in test [3] is MBP-tagged SK2 C-terminus (aa 368-553) (chicken, UniProt Q9PTS9 368-553). As to the kind of experiment: pull-down.
Test [4] addresses chicken SK2 (isoform lacking the ARK insert), full length, expressed in Xenopus oocytes (chicken, UniProt Q9PTS9 1-553). As to the kind of experiment: co-IP.

“GST-tagged full-length human α-actinin-1 (from UniProt P12814-3 1-914) (natural protein)”: in test [1], the bound α-actinin-1, percent of that bound to SK2 was 81.2 % of SK2 and the fold increase in binding with 1 mM CaCl2 against 5 mM BAPTA is 6.8 fold. Take “calmodulin, purified from bovine brain (from UniProt P62157 1-149) (natural protein)”: the co-precipitated CaM with 5 mM BAPTA, percent of that with SK2 in test [1] is 142 % of SK2.

Consider “HA-tagged α9/10-nicotinic acetylcholine receptor (chicken α9 and α10-HA subunits) (from UniProt Q9PTS8 28-484; Q9I8C7 27-452) (complex)”, for which the co-precipitated α9/10-nAChRs, percent of that with SK2 in test [2] is 173 % of SK2.

B1: GST-tagged full-length human α-actinin-1 (natural protein, UniProt P12814-3 1-914, looked up)
chain: MDHYDSQQTNDYMQPEEDWDRDLLLDPAWEKQQRKTFTAWCNSHLRKAGTQIENIEEDFRDGLKLMLLLEVISGERLAKPERGKMRVHKISNVNKALDFIASKGVKLVSIGAEEIVDGNVKMTLGMIWTIILRFAIQDISVEETSAKEGLLLWCQRKTAPYKNVNIQNFHISWKDGLGFCALIHRHRPELIDYGKLRKDDPLTNLNTAFDVAEKYLDIPKMLDAEDIVGTARPDEKAIMTYVSSFYHAFSGAQKAETAANRICKVLAVNQENEQLMEDYEKLASDLLEWIRRTIPWLENRVPENTMHAMQQKLEDFRDYRRLHKPPKVQEKCQLEINFNTLQTKLRLSNRPAFMPSEGRMVSDINNAWGCLEQVEKGYEEWLLNEIRRLERLDHLAEKFRQKASIHEAWTDGKEAMLRQKDYETATLSEIKALLKKHEAFESDLAAHQDRVEQIAAIAQELNELDYYDSPSVNARCQKICDQWDNLGALTQKRREALERTEKLLETIDQLYLEYAKRAAPFNNWMEGAMEDLQDTFIVHTIEEIQGLTTAHEQFKATLPDADKERLAILGIHNEVSKIVQTYHVNMAGTNPYTTITPQEINGKWDHVRQLVPRRDQALTEEHARQQHNERLRKQFGAQANVIGPWIQTKMEEIGRISIEMHGTLEDQLSHLRQYEKSIVNYKPKIDQLEGDHQLIQEALIFDNKHTNYTMEHIRVGWEQLLTTIARTINEVENQILTRDAKGISQEQMNEFRASFNHFDRDHSGTLGPEEFKACLISLGYDIGNDPQKKTGMMDTDDFRACLISMGYNMGEAEFARIMSIVDPNRLGVVTFQAFIDFMSRETADTDTADQVMASFKILAGDKNYITMDELRRELPPDQAEYCIARMAPYTGPDSVPGALDYMSFSTALYGESDL
For the molecule B1, the “fold increase in binding with 1 mM CaCl2 against 5 mM BAPTA” value in test [3] came out at 3.2 fold.

B2: HA-tagged α9/10-nicotinic acetylcholine receptor (chicken α9 and α10-HA subunits) (complex)
chain 1: AKGKYAQMLFNELFEDYSNALRPVEDTDKVLNVTLQITLSQIKDMDERNQILTAYLWIRQSWYDAYLKWDKDKYDGLDSIRIPSNLVWRPDIVLYNKADDDFSEPVNTNVVLRYDGKITWDAPAITKSSCVVDVSYFPFDSQQCNLTFGSWTYNGNQVDIINSLDSGDLSDFVEDVEWEIHGMPAVKNVITYGCCSEPYPDVTFTLILKRKSSFYIFNLLLPCILISFLAPLGFYLPADSGEKVSLGVTVLLALTVFQLMVAEIMPPSENVPLIGKYYIATMTMITASTALTIIIMNVHHCGSEAKPVPQWARVVILDYMSKIFFVYDVGENCTSPRREKEQEHRLEGGDMCRGGDGKSHLSSRNDDSDLKENLNGNWNKSFGVHGENVRENVNCCSCYKMLIKNIEYIANCVRDHKANRAKGIEWKKVAKVMDRFFMWIFFIMVFFMSVLIIGKAA
chain 2: AQGRLAHKLLHDLFANYSSALRPAEDTERALNVTLQVTLSQIIDMDERNQVLTSYLWVRQAWLDAHLAWDKDAYGGIDSIRIPSSYVWRPDIVLYNNADERFGGSMETNVVLRSDGHIMWDSPAITKSSCKVDVSYFPFDGQQCRLTFGSWTYNGNQIDLRNLLDTGDLTDFVENVEWEVLGMPATRNVVTYGCCSEPYPDVTYTLLLRRRASFYIFNLLLPCVMISFLAPLGFYLPADSGEKVSLGVTVLLALTVFQLLVAESMPPSESVPLIGKYYIATMTMITASTALTIFIMNIHHCGPGARPVPPWARRLILHHLARALCVCEVGESCGRPQREGTGGMGPRDPPGEGVEPGLCPRSRCLCHHHAVLSSVGYIAGVFRRHRTAQRRAAEWKKVAKVMDRFFMWVFFLMVFLMSVLVIGKAA
As for B2, the “fold change of co-precipitation after BAPTA-AM” value in test [4] was 2 fold.
